Data as given in patent publication US20240000957A1 (published 2024).

Tests used:
Experiment in all cases: SPR
Human EphA1 Fc fusion = target: T1, Human EphA1 Fc fusion (Human, UniProt P21709 26-547)
T1 construct: SPR; Sino Biologics 15789-H02H
T1 sequence (looked up): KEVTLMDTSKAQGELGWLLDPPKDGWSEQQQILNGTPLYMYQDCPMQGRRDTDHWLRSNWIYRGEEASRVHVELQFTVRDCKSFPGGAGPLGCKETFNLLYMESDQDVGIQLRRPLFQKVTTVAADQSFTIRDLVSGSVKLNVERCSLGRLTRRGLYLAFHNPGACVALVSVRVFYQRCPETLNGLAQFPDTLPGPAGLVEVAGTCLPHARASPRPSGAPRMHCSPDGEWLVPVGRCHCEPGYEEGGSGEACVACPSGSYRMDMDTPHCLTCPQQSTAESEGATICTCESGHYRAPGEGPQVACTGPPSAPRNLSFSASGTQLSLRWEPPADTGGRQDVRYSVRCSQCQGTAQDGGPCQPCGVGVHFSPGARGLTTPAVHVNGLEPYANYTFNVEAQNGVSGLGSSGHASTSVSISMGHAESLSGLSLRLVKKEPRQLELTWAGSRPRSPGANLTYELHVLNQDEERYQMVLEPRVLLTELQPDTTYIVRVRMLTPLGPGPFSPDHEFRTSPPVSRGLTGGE

Human EphA4 Fc fusion = target: T2, Human EphA4 Fc fusion (Human, UniProt P54764 20-547)
T2 construct: SPR; Sino Biologics 11314-H03H

Mouse EphA4 Fc fusion = target: T3, Mouse EphA4 Fc fusion (Mouse, UniProt Q03137 20-547)
T3 construct: SPR; Sino Biologics 50575-M02H

Rat EphA3 Fc fusion = target: T4, Rat EphA3 Fc fusion (Rat, UniProt O08680 21-541)
T4 construct: SPR; Sino Biologics 80465-R02H
T4 sequence (looked up): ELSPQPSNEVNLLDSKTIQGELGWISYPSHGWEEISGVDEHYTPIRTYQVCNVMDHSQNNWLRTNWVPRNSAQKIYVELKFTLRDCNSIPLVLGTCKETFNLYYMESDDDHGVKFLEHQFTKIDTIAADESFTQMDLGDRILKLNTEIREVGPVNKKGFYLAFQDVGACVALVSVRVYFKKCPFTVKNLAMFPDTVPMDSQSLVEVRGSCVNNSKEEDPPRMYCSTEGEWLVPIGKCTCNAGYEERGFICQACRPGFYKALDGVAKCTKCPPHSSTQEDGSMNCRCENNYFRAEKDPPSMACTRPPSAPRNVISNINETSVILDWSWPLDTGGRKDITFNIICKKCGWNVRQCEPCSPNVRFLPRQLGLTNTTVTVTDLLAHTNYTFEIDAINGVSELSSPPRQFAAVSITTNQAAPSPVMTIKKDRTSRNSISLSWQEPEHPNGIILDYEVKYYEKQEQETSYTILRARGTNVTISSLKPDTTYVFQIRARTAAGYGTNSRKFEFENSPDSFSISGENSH

Human EphA6 Fc fusion = target: T5, Human EphA6 Fc fusion (Human, UniProt Q9UF33 23-550, limits assumed)
T5 construct: SPR; R&D Systems 5606-A6
T5 sequence (looked up): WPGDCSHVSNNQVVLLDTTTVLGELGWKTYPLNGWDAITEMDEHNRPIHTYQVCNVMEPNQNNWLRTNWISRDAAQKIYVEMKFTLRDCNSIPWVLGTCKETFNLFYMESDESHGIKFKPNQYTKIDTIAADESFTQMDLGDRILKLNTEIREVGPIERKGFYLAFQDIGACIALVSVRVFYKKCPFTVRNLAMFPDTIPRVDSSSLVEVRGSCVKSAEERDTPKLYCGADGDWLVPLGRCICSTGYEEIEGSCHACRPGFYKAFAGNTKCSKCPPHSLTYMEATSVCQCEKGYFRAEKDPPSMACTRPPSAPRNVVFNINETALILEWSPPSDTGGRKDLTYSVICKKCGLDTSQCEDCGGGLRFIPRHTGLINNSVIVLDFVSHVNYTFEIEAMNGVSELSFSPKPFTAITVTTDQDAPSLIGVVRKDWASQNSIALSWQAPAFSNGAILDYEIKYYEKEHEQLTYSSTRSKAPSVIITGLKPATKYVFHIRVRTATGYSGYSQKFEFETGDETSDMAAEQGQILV

Measured: binding result

T2 sequence (P54764 20-547 limits assumed): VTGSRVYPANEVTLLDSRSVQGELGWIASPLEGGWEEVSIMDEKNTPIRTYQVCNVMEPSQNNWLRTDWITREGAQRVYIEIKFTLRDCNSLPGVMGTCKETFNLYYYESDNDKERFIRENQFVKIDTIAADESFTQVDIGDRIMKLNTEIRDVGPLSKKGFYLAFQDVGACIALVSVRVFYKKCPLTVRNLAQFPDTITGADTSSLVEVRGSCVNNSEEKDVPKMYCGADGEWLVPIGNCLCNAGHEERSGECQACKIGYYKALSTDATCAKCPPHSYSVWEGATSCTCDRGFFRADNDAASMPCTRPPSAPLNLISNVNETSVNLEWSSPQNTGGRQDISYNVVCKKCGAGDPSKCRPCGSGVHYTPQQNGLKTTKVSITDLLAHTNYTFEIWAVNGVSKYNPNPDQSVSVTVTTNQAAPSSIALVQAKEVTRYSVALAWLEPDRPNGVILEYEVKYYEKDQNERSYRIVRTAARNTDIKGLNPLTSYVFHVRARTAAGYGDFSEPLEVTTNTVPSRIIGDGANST
T3 sequence (Q03137 20-547 limits assumed): as the sequence (P54764 20-547 limits assumed) above, with P59A, N121S, V124G, R250Q, S251N, T270S, K378R, N406S counted along it

B1: BCY6033 (peptide)
peptide: AXDCPLVNPLCLHPGWTC
modifications: not fully specified; as BCY6014 (N-terminal (β-Ala)-Sar10; HArg; TATA scaffold on the 3 Cys) + ValCit-MMAE
notes: Bicycle drug conjugate (BDC)
no binding: Human EphA1 Fc fusion | Human EphA4 Fc fusion | Mouse EphA4 Fc fusion | Rat EphA3 Fc fusion | Human EphA6 Fc fusion

B2: BCY6082 (peptide)
peptide: AXDCPLVNPLCLHPGWTC
modifications: not fully specified; as BCY6014 (N-terminal (β-Ala)-Sar10; HArg; TATA scaffold on the 3 Cys) + DM1-SS(SO3H)-
notes: Bicycle drug conjugate (BDC)
no binding: Human EphA1 Fc fusion | Human EphA4 Fc fusion | Mouse EphA4 Fc fusion | Rat EphA3 Fc fusion | Human EphA6 Fc fusion
